Laboratory results from paper PMC12501226.

Biological target: Recombinant SARS-CoV-1 spike protein 2P (residues 12-1193) (SARS-CoV-1) (UniProt P59594)
Assay: SPR

“ACE2 monomer (human extracellular ACE2 domain, residues 18-615, cut from ACE2-TEV-Fc) (from UniProt Q9BYF1 18-615) (domain or fragment)” showed a Kd of 71 nM, a koff of 0.0016 s⁻¹ and a kon of 170000 M⁻¹ s⁻¹.
